Measurements from publication PMC6464244, “The fungal ribonuclease-like effector protein CSEP0064/BEC1054 represses plant immunity and interferes with degradation of host ribosomal RNA”.

Tests used:
CSEP0064/BEC1054 [1] = target: T1, CSEP0064/BEC1054 (Blumeria graminis, UniProt N1JJ94 22-118); test: MST; up to 1 mM; no curve could be fitted; MST: 20 mM Tris pH 7.4, 150 mM NaCl, 0.05% Tween, 50 nM labelled protein; NMR: 50 uM protein, 50 mM Tris, 150 mM NaCl, 308 K; conditions: protein: recombinant; tags: Trx-His6 removed by TEV; NT-647 NHS amine label for MST; 15N for NMR; single strand
T1 sequence: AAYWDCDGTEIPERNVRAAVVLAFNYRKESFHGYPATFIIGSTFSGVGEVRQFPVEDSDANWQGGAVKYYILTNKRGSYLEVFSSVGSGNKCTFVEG

CSEP0064/BEC1054 [2] = target: T1, CSEP0064/BEC1054; test: NMR 1H-15N HSQC titration; fast exchange; small CSPs, saturation at ~50 molar equivalents; binding observed; conditions: protein: recombinant; tags: Trx-His6 removed by TEV; NT-647 NHS amine label for MST; 15N for NMR; hairpin (predicted same fold as SRL RNA)
CSEP0064/BEC1054 [3] = target: T1, CSEP0064/BEC1054; test: NMR 1H-15N HSQC titration; 8 mole equivalents; discrete CSPs, weak; conditions: protein: recombinant; tags: Trx-His6 removed by TEV; NT-647 NHS amine label for MST; 15N for NMR; hairpin (SRL fold)

AAUUUAAUACGACUCACUAUAGG (ssRNA) [bacteriophage T7 promoter RNA (non-rRNA control)]: no binding (CSEP0064/BEC1054 [1]).

Binder ACCTGCTCAGTACGAGAGGAACCGCAGGT (structured_DNA, DNA version of SRL RNA) [SRL DNA oligonucleotide] has a Kd (CSEP0064/BEC1054 [2]) of over 10 µM.

ACCUGCUCAGUACGAGAGGAACCGCAGGU (structured_RNA) [SRL RNA (barley 28S rRNA sarcin-ricin loop)]: binds (CSEP0064/BEC1054 [3]).
